Results taken from publication PMC9103804, “RNA and Protein Determinants Mediate Differential Binding of miRNAs by a Viral Suppressor of RNA Silencing Thus Modulating Antiviral Immune Responses in Plants” (International Journal of Molecular Sciences, 2022).

Tests used:
[1] = biological target: the molecule itself; experiment: AUC; analytical ultracentrifugation at protein concentrations of 1.2-13 uM (CIRV p19); data not shown; procedure as in ref. 36
TAV 2b [2] = biological target: T1, TAV 2b (Tomato aspermy virus, UniProt Q8UYT3 1-95); experiment: EMSA; settings: protein: recombinant; tags: His-SUMO removed; chain copies: 2; label: 5'-32P; 3' overhangs 2 nt
T1 sequence: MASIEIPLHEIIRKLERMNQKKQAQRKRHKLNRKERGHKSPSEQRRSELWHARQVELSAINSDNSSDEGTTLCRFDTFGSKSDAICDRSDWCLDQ

CIRV p19 = biological target: T2, CIRV p19 (Carnation Italian ringspot virus, UniProt Q66104 1-172); experiment: EMSA; settings: protein: recombinant, tags: GST tag removed (PreScission, pGEX-6P-1), chain copies: 2, label: 5'-32P, 3' overhangs 2 nt
T2 sequence: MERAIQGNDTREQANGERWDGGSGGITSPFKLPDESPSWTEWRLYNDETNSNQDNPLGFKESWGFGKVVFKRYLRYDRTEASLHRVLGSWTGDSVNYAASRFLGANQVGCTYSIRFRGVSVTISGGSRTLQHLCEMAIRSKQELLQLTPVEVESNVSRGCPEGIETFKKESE

TAV 2b [3] = biological target: T1, TAV 2b; experiment: competition; Kc vs labeled gf698; settings: protein: recombinant, tags: His-SUMO removed, chain copies: 2, label: 5'-32P, 3' overhangs 2 nt

B1: p19 protein of Carnation Italian ringspot virus (CIRV) (natural protein)
chain: T2 sequence
notes: p19 suppressor of RNA silencing, Carnation Italian ringspot virus (Tombusvirus); the p19 ORF cloned into pGEX-6P-1, GST removed with PreScission protease; Residues of the vector may be left at the N-terminus after PreScission cleavage (surmised); also called CIRV p19; p19 wt; source: E. coli BL21 (DE3) RIPL, purified (GSTrap, PreScission cleavage, Resource Q anion exchange)
Question: Which “stoichiometry N” value [1] does the source give for B1 here?
Answer: 2

B2: gf698 siRNA (dsRNA)
RNA 1: UAGUUCAUCCAUGCCAUGUGU
RNA 2: ACAUGGCAUGGAUGAACUAUA
modifications: 5'-phosphate
Question: Which results are given for B2?
Answer: Kd (TAV 2b [2]): 0.68 ± 0.15 nM; Kd (CIRV p19): 0.06 ± 0.04 nM; Ki (TAV 2b [3]): 0.53 ± 0.08 nM

B3: AtmiR162 (dsRNA)
RNA 1: UCGAUAAACCUCUGCAUCCAG
RNA 2: GGAGGCAGCGGUUCAUCGAUC
modifications: 5'-phosphate
Question: Which Kd (CIRV p19; mismatches) does the source give for B3 here?
Answer: 0.06 ± 0.02 nM

Question: And the Ki (TAV 2b [3]; mismatches)?
Answer: 0.67 ± 0.09 nM

B4: miR162-12gC/8*C (dsRNA)
RNA 1: UCGAUAAACCUCUGCAUCCAG
RNA 2: GGAUGCACAGGUUCAUCGAUC
modifications: 5'-phosphate
Question: How did the Kd (CIRV p19; C/C mismatch) turn out when B4 was run?
Answer: 0.28 ± 0.24 nM

B5: miR162-11gU/9*C (dsRNA)
RNA 1: UCGAUAAACCUCUGCAUCCAG
RNA 2: GGAUGCAGCGGUUCAUCGAUC
modifications: 5'-phosphate
Question: How did the Kd (CIRV p19; C/U mismatch) turn out when B5 was run?
Answer: 0.22 ± 0.03 nM

B6: miR162-10gC/10*C (dsRNA)
RNA 1: UCGAUAAACCUCUGCAUCCAG
RNA 2: GGAUGCAGACGUUCAUCGAUC
modifications: 5'-phosphate
Question: B6 was tested. Which Kd (CIRV p19; C/C mismatch) did it give?
Answer: 1.73 ± 0.57 nM

B7: miR162-19gU/1*G (dsRNA)
RNA 1: UCGAUAAACCUCUGCAUCUAG
RNA 2: GGAUGCAGAGGUUCAUCGAUC
modifications: 5'-phosphate
Question: How did the Kd (CIRV p19; G-U wobble) turn out when B7 was run?
Answer: 0.15 ± 0.12 nM

B8: miR162-18gU/2*G (dsRNA)
RNA 1: UCGAUAAACCUCUGCAUUCAG
RNA 2: GGAUGCAGAGGUUCAUCGAUC
modifications: 5'-phosphate
Question: With B8 as the binder, how does the Kd (CIRV p19; G-U wobble) read?
Answer: 0.13 ± 0.03 nM

B9: miR162-17gU/3*G (dsRNA)
RNA 1: UCGAUAAACCUCUGCAUCCAG
RNA 2: GGGUGCAGAGGUUCAUCGAUC
modifications: 5'-phosphate
Question: For B9, which Kd (CIRV p19; G-U wobble) is on record?
Answer: 0.09 ± 0.04 nM

B10: miR162-16gU/4*G (dsRNA)
RNA 1: UCGAUAAACCUCUGCUUCCAG
RNA 2: GGAGGCAGAGGUUCAUCGAUC
modifications: 5'-phosphate
Question: With B10 as the binder, how does the Kd (CIRV p19; G-U wobble) read?
Answer: 0.17 ± 0.05 nM

B11: miR162-15gU/5*G (dsRNA)
RNA 1: UCGAUAAACCUCUGUAUCCAG
RNA 2: GGAUGCAGAGGUUCAUCGAUC
modifications: 5'-phosphate
Question: How did the Kd (CIRV p19; G-U wobble) turn out when B11 was run?
Answer: 0.1 ± 0.01 nM

B12: miR162-14gU/6*G (dsRNA)
RNA 1: UCGAUAAACCUCUUCAUCCAG
RNA 2: GGAUGGAGAGGUUCAUCGAUC
modifications: 5'-phosphate
Question: Which Kd (CIRV p19; G-U wobble) does the source give for B12 here?
Answer: 0.45 ± 0.08 nM

B13: miR162-13gU/7*G (dsRNA)
RNA 1: UCGAUAAACCUCUGCAUCCAG
RNA 2: GGAUGCGGAGGUUCAUCGAUC
modifications: 5'-phosphate
Question: With B13 as the binder, how does the Kd (CIRV p19; G-U wobble) read?
Answer: 1.82 ± 0.38 nM

B14: miR162-0 (dsRNA)
RNA 1: UCGAUAAACCUCUGCAUCCAG
RNA 2: GGAUGCAGAGGUUCAUCGAUC
modifications: 5'-phosphate
Question: Which Kd (CIRV p19) does the source give for B14 here?
Answer: 0.15 ± 0.06 nM

B15: miR162-12gU/8*G (dsRNA)
RNA 1: UCGAUAAACCUUUGCAUCCAG
RNA 2: GGAUGCAGAGGUUCAUCGAUC
modifications: 5'-phosphate
Question: B15 was tested. Which Kd (CIRV p19; G-U wobble) did it give?
Answer: 1.93 ± 0.13 nM

B16: miR162-11gU/9*G (dsRNA)
RNA 1: UCGAUAAACCUCUGCAUCCAG
RNA 2: GGAUGCAGGGGUUCAUCGAUC
modifications: 5'-phosphate
Question: With B16 as the binder, how does the Kd (CIRV p19; G-U wobble) read?
Answer: 0.14 ± 0.12 nM

B17: miR162-10gU/10*G (dsRNA)
RNA 1: UCGAUAAACUUCUGCAUCCAG
RNA 2: GGAUGCAGAGGUUCAUCGAUC
modifications: 5'-phosphate
Question: With B17 as the binder, how does the Kd (CIRV p19; G-U wobble) read?
Answer: 0.63 ± 0.21 nM

B18: miR162-14gG/6*U (dsRNA)
RNA 1: UCGAUAAACCUCUGCAUCCAG
RNA 2: GGAUGUAGAGGUUCAUCGAUC
modifications: 5'-phosphate
Question: How did the Kd (CIRV p19; U-G wobble) turn out when B18 was run?
Answer: 0.15 ± 0.09 nM

B19: miR162-13gG/7*U (dsRNA)
RNA 1: UCGAUAAACCUCGGCAUCCAG
RNA 2: GGAUGCUGAGGUUCAUCGAUC
modifications: 5'-phosphate
Question: For B19, which Kd (CIRV p19; U-G wobble) is on record?
Answer: 1.53 ± 0.49 nM

B20: miR162-12gG/8*U (dsRNA)
RNA 1: UCGAUAAACCUGUGCAUCCAG
RNA 2: GGAUGCAUAGGUUCAUCGAUC
modifications: 5'-phosphate
Question: How did the Kd (CIRV p19; U-G wobble) turn out when B20 was run?
Answer: 0.31 ± 0.08 nM

B21: miR162-12gC/8*A (dsRNA)
RNA 1: UCGAUAAACCUCUGCAUCCAG
RNA 2: GGAUGCAAAGGUUCAUCGAUC
modifications: 5'-phosphate
Question: Which Kd (CIRV p19; A/C mismatch) does the source give for B21 here?
Answer: 0.16 ± 0.03 nM

B22: miR162-12gG/8*G (dsRNA)
RNA 1: UCGAUAAACCUGUGCAUCCAG
RNA 2: GGAUGCAGAGGUUCAUCGAUC
modifications: 5'-phosphate
Question: For B22, which Kd (CIRV p19; G/G mismatch) is on record?
Answer: 0.07 ± 0.04 nM

B23: miR162-10gC/10*A (dsRNA)
RNA 1: UCGAUAAACCUCUGCAUCCAG
RNA 2: GGAUGCAGAAGUUCAUCGAUC
modifications: 5'-phosphate
Question: B23 was tested. Which Kd (CIRV p19; A/C mismatch) did it give?
Answer: 0.35 ± 0.24 nM

B24: AtmiR168a (dsRNA)
RNA 1: UCGCUUGGUGCAGGUCGGGAA
RNA 2: CCCGCCUUGCAUCAACUGAAU
modifications: 5'-phosphate
Question: With B24 as the binder, how does the Kd (CIRV p19; mismatches and G-U wobbles) read?
Answer: 2.49 ± 0.88 nM

Question: And the Ki (TAV 2b [3]; mismatches and G-U wobbles)?
Answer: 12.1 ± 0.7 nM

B25: miR162-19gC/1*C (dsRNA)
RNA 1: UCGAUAAACCUCUGCAUCCAG
RNA 2: CGAUGCAGAGGUUCAUCGAUC
modifications: 5'-phosphate
Question: With B25 as the binder, how does the Kd (CIRV p19; C/C mismatch) read?
Answer: 0.34 ± 0.15 nM

B26: AtmiR168a variant 1 (dsRNA)
RNA 1: UCGCUUGGUGCAGGUCGGGAA
RNA 2: CCCGCCCUGCAUCAACUGAAU
modifications: 5'-phosphate
Question: B26 was tested. Which Kd (CIRV p19; mismatches and G-U wobbles) did it give?
Answer: 3.13 ± 1.67 nM

B27: AtmiR168a variant 2 (dsRNA)
RNA 1: UCGCUUGGUGCAGGUCGGGAA
RNA 2: CCCGCCUUGCACCAACUGAAU
modifications: 5'-phosphate
Question: Which results are given for B27?
Answer: Kd (CIRV p19; mismatches and G-U wobbles): 0.71 ± 0.28 nM; Ki (TAV 2b [3]; mismatches and G-U wobbles): 1.1 ± 0.2 nM

B28: AtmiR168a variant 3 (dsRNA)
RNA 1: UCGCUUGGUGCAGGUCGGGAA
RNA 2: CCCGCCCUGCACCAACUGAAU
modifications: 5'-phosphate
Question: B28 was tested. Which Kd (CIRV p19; mismatches) did it give?
Answer: 1 ± 0.24 nM

Question: What about the Ki (TAV 2b [3]; mismatches) of the same binder?
Answer: 2.2 ± 0.4 nM

B29: AtmiR168a variant 4 (dsRNA)
RNA 1: UCGCUUGGUGCAGGUCGGGAA
RNA 2: CCCGACCUGCAUCAAAUGAAU
modifications: 5'-phosphate
Question: How did the Kd (CIRV p19; G-U wobbles) turn out when B29 was run?
Answer: 2.65 ± 0.49 nM

B30: AtmiR168a variant 5 (dsRNA)
RNA 1: UCGCUUGGUGCAGGUCGGGAA
RNA 2: CCCGACUUGCACCAAGUGAAU
modifications: 5'-phosphate
Question: B30 was tested. Which Kd (CIRV p19; G-U wobbles) did it give?
Answer: 0.48 ± 0.17 nM

Question: And the Ki (TAV 2b [3]; G-U wobbles)?
Answer: 1.4 ± 0.2 nM

B31: AtmiR168a variant 6 (dsRNA)
RNA 1: UCGCUUGGUGCAGGUCGGGAA
RNA 2: CCCGACCUGCACCAAGCGAAU
modifications: 5'-phosphate
Question: Which Kd (CIRV p19) does the source give for B31 here?
Answer: 0.34 ± 0.16 nM

Question: What about the Ki (TAV 2b [3]) of the same binder?
Answer: 0.38 ± 0.05 nM

B32: miR162-18gC/2*C (dsRNA)
RNA 1: UCGAUAAACCUCUGCAUCCAG
RNA 2: GCAUGCAGAGGUUCAUCGAUC
modifications: 5'-phosphate
Question: With B32 as the binder, how does the Kd (CIRV p19; C/C mismatch) read?
Answer: 0.12 ± 0.08 nM

B33: miR162-17gU/3*C (dsRNA)
RNA 1: UCGAUAAACCUCUGCAUCCAG
RNA 2: GGCUGCAGAGGUUCAUCGAUC
modifications: 5'-phosphate
Question: B33 was tested. Which Kd (CIRV p19; C/U mismatch) did it give?
Answer: 0.3 ± 0.17 nM

B34: miR162-16gA/4*G (dsRNA)
RNA 1: UCGAUAAACCUCUGCAUCCAG
RNA 2: GGAGGCAGAGGUUCAUCGAUC
modifications: 5'-phosphate
Question: B34 was tested. Which Kd (CIRV p19; G/A mismatch) did it give?
Answer: 0.38 ± 0.13 nM

B35: miR162-15gC/5*C (dsRNA)
RNA 1: UCGAUAAACCUCUGCAUCCAG
RNA 2: GGAUCCAGAGGUUCAUCGAUC
modifications: 5'-phosphate
Question: Which Kd (CIRV p19; C/C mismatch) does the source give for B35 here?
Answer: 0.23 ± 0.08 nM

B36: miR162-14gG/6*A (dsRNA)
RNA 1: UCGAUAAACCUCUGCAUCCAG
RNA 2: GGAUGAAGAGGUUCAUCGAUC
modifications: 5'-phosphate
Question: With B36 as the binder, how does the Kd (CIRV p19; A/G mismatch) read?
Answer: 0.86 ± 0.49 nM

B37: miR162-13gU/7*C (dsRNA)
RNA 1: UCGAUAAACCUCUGCAUCCAG
RNA 2: GGAUGCCGAGGUUCAUCGAUC
modifications: 5'-phosphate
Question: B37 was tested. Which Kd (CIRV p19; C/U mismatch) did it give?
Answer: 1.01 ± 0.1 nM
